Laboratory results from the Human Domainome abundance scans (Beltran et al. 2025).
± gives the uncertainty stated by the source.

Assay: abundance fitness (aPCA) (normalised: wild type 0, dead -1); higher = more abundant; growth selection in yeast, the domain comes from the species named
Conditions: Homo sapiens
In the case of “Ventral anterior homeobox 1 F119A, Q5SQQ9”, the abundance fitness is reported as -0.74 ± 0.21.
In the case of “Ventral anterior homeobox 1 F119E, Q5SQQ9”, the abundance fitness is reported as -1.16 ± 0.3.
For “Ventral anterior homeobox 1 F119G, Q5SQQ9”, the abundance fitness was -0.857 ± 0.16.
“Ventral anterior homeobox 1 F119K, Q5SQQ9” gave an abundance fitness of -0.837 ± 0.31.
“Ventral anterior homeobox 1 F119N, Q5SQQ9” showed an abundance fitness of -0.658 ± 0.32.
In the case of “Ventral anterior homeobox 1 F119P, Q5SQQ9”, the abundance fitness is reported as -0.978 ± 0.34.
Substance “Ventral anterior homeobox 1 F119Q, Q5SQQ9” has an abundance fitness of -0.727 ± 0.39.
In the case of “Ventral anterior homeobox 1 F119R, Q5SQQ9”, the abundance fitness is reported as -0.88 ± 0.17.
With “Ventral anterior homeobox 1 F119S, Q5SQQ9” the abundance fitness was -0.64 ± 0.18.
With “Ventral anterior homeobox 1 F119T, Q5SQQ9” the abundance fitness was -0.856 ± 0.29.
For “Ventral anterior homeobox 1 L115D, Q5SQQ9”, the abundance fitness was -0.822 ± 0.4.
Work on “Ventral anterior homeobox 1 L115E, Q5SQQ9” yielded an abundance fitness of -0.719 ± 0.29.
For “Ventral anterior homeobox 1 L115G, Q5SQQ9”, the abundance fitness was -0.763 ± 0.16.
With “Ventral anterior homeobox 1 L115K, Q5SQQ9” the abundance fitness was -0.821 ± 0.41.
In the case of “Ventral anterior homeobox 1 L115N, Q5SQQ9”, the abundance fitness is reported as -0.637 ± 0.35.
“Ventral anterior homeobox 1 L115R, Q5SQQ9” gave an abundance fitness of -0.918 ± 0.16.
“Ventral anterior homeobox 1 Q111A, Q5SQQ9” showed an abundance fitness of -0.226 ± 0.13.
Work on “Ventral anterior homeobox 1 Q111C, Q5SQQ9” yielded an abundance fitness of -0.214 ± 0.18.
“Ventral anterior homeobox 1 Q111D, Q5SQQ9” showed an abundance fitness of -0.564 ± 0.18.
“Ventral anterior homeobox 1 Q111E, Q5SQQ9” gave an abundance fitness of -0.393 ± 0.17.
“Ventral anterior homeobox 1 Q111F, Q5SQQ9” showed an abundance fitness of -0.954 ± 0.32.
Work on “Ventral anterior homeobox 1 Q111G, Q5SQQ9” yielded an abundance fitness of -0.715 ± 0.11.
Substance “Ventral anterior homeobox 1 Q111H, Q5SQQ9” has an abundance fitness of -0.355 ± 0.17.
Substance “Ventral anterior homeobox 1 Q111I, Q5SQQ9” has an abundance fitness of -0.231 ± 0.27.
Work on “Ventral anterior homeobox 1 Q111K, Q5SQQ9” yielded an abundance fitness of -0.599 ± 0.28.
In the case of “Ventral anterior homeobox 1 Q111L, Q5SQQ9”, the abundance fitness is reported as -0.807 ± 0.17.
Substance “Ventral anterior homeobox 1 Q111M, Q5SQQ9” has an abundance fitness of -0.31 ± 0.19.
With “Ventral anterior homeobox 1 Q111N, Q5SQQ9” the abundance fitness was -0.262 ± 0.24.
Substance “Ventral anterior homeobox 1 Q111P, Q5SQQ9” has an abundance fitness of -0.716 ± 0.21.
With “Ventral anterior homeobox 1 Q111R, Q5SQQ9” the abundance fitness was -0.732 ± 0.12.
In the case of “Ventral anterior homeobox 1 Q111S, Q5SQQ9”, the abundance fitness is reported as -0.727 ± 0.14.
For “Ventral anterior homeobox 1 Q111T, Q5SQQ9”, the abundance fitness was -0.068 ± 0.16.
In the case of “Ventral anterior homeobox 1 Q111V, Q5SQQ9”, the abundance fitness is reported as -0.048 ± 0.12.
Substance “Ventral anterior homeobox 1 Y113D, Q5SQQ9” has an abundance fitness of 0.287 ± 0.2.
For “Ventral anterior homeobox 1 Y113E, Q5SQQ9”, the abundance fitness was 0.209 ± 0.17.
“Ventral anterior homeobox 1 Y113G, Q5SQQ9” showed an abundance fitness of 0.01 ± 0.093.
Substance “Ventral anterior homeobox 1 Y113H, Q5SQQ9” has an abundance fitness of -0.096 ± 0.25.
With “Ventral anterior homeobox 1 Y113K, Q5SQQ9” the abundance fitness was -0.004 ± 0.24.
Work on “Ventral anterior homeobox 1 Y113N, Q5SQQ9” yielded an abundance fitness of 0.168 ± 0.38.
In the case of “Ventral anterior homeobox 1 Y113R, Q5SQQ9”, the abundance fitness is reported as -0.012 ± 0.097.
